Laboratory results: publication PMC2852410, “Shared Active Site Architecture between the Large Subunit of Eukaryotic Primase and DNA Photolyase”

Assays:
[1] = biological target: T1, DNA primase large subunit PriL, full length;DNA primase small subunit PriS (Saccharomyces cerevisiae;Saccharomyces …, UniProt P20457;P10363 1-528;1-409, |); experiment: fluorescence anisotropy; 20 nM DNA; Buffer F: 20 mM HEPES pH 6.8, 150 mM KCl, 1 mM EDTA, 25 C; SPR in buffer F + 0.005% P20, 25 C; conditions: protein: recombinant;recombinant; tags: ;; copies: 1;1; label: fluorescein; single strand
T1 sequence 1: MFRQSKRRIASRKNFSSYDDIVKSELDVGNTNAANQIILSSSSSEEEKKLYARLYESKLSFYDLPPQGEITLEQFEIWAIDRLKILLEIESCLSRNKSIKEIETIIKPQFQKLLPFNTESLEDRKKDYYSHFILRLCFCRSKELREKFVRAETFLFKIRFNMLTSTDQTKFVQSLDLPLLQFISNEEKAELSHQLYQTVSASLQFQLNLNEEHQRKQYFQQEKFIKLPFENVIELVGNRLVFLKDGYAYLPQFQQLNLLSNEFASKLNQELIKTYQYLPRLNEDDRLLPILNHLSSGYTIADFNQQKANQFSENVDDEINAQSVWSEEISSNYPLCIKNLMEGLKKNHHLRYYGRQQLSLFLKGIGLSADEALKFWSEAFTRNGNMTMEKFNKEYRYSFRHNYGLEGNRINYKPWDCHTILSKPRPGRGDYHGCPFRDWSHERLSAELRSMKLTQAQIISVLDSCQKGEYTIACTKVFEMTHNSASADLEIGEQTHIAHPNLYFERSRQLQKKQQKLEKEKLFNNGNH
T1 sequence 2: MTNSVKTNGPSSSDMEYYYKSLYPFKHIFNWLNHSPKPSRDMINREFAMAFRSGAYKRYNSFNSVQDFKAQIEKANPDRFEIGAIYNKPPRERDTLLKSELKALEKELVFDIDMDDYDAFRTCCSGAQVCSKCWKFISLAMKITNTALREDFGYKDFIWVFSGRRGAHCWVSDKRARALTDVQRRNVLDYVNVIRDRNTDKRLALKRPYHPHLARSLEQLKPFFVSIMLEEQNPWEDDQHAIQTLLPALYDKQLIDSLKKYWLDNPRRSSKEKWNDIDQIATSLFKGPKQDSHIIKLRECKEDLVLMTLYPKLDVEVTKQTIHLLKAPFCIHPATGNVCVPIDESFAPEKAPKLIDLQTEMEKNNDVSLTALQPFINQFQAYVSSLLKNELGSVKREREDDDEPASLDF

PriL-CTD [2] = biological target: T2, PriL-CTD (Saccharomyces cerevisiae, UniProt P20457 316-512, del381-383); experiment: fluorescence anisotropy; Kd similar to the 70 µM of the mixed 20mer; data not shown; Buffer F: 20 mM HEPES pH 6.8, 150 mM KCl, 1 mM EDTA, 25 C; SPR in buffer F + 0.005% P20, 25 C; conditions: protein: recombinant; tags: N-terminal His6, removed by TEV; label: fluorescein; single strand
T2 sequence: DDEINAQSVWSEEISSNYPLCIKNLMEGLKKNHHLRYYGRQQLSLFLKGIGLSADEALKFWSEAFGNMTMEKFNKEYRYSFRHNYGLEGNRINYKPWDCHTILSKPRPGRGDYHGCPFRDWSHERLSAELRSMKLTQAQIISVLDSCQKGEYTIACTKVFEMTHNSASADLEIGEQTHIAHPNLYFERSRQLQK

PriL-CTD [3] = biological target: T2, PriL-CTD; experiment: fluorescence anisotropy; 80 nM DNA; Buffer F: 20 mM HEPES pH 6.8, 150 mM KCl, 1 mM EDTA, 25 C; SPR in buffer F + 0.005% P20, 25 C; conditions: protein: recombinant, tags: N-terminal His6, removed by TEV

TTTTTTTTTTTTTTTTTTTTTTTTTTTTTTTTTTTTTTTT (ssDNA) [poly(dT) 40mer]
Kd [1]: 1.7 µM

TTTTTTTTTTTTTTTTTTTT (ssDNA) [poly(dT) 20mer]
binding result (PriL-CTD [2]): binds

B1: dsDNA 20mer (fluorescein) (dsDNA)
DNA 1: GGTGAGAGGAGAATGGAAGT
DNA 2: ACTTCCATTCTCCTCTCACC
Kd (PriL-CTD [3]; label: 5' fluorescein on S2, the printed complement S1 carries 5' biotin, blunt): 178 ± 1.3 µM

GGTGAGAGGAGAATGGAAGT (ssDNA) [ssDNA 20mer (fluorescein)]
Kd (PriL-CTD [3]; label: 5' fluorescein, single strand): 70 ± 0.2 µM
